Columns and labels:
NOD mice = test: Diabetes inhibition study in NOD mice; type: in vivo, mouse
Method: (B) Pre-diabetic mice were treated daily starting from 11 weeks of age with either rapamycin, rapamycin+IL-10 or IL-10 alone.
NOD mice were treated from 11 weeks to 31 weeks of age with IL-10 (IL-10, n=7 mice), or rapamycin (RAPA, n=13 mice), or rapamycin+IL-10 (RAPA/IL-10 n=16 mice), or vehicle (CNTR, n=22 mice). Diabetes incidence, monitored by glycemia levels, was stable at least up to 60 weeks of age. Administration of rapamycin alone reduced diabetes incidence from 95% to 46%.
In our proposed protocol, down-regulation of inflammation should be achieved by IL-10, and blockade of T effector cell expansion should be achieved by rapamycin. Neither IL-10 nor rapamycin prevent T cell priming and therefore they should allow induction of antigen-specific T regulatory cells, and as described below, IL-10 should promote the induction and expansion of Tr1 cells. We investigated the effect of rapamycin alone or in combination with IL-10 in treating autoimmunity in the NOD mouse a model for type I diabetes. […] Inhibition of type I diabetes was evaluated by treating NOD mice daily starting at 11 weeks of age (i.e. pre-diabetic mice with periinsultis) with rapamycin, rapamycin+IL-10, or IL-10 alone. […]
Mice. […] Glucose level in the tail venous blood was quantified using Glucometer Elite system (Bayer, Wuppertal, Germany). […]
Diabetes inhibition study. […] Diabetes incidence was monitored by blood glucose levels.

[1] = test system: Tr1 and CD4+CD25+ T cells; test: Tr cell content (cytokine profile by CBA, CD4+CD25+ by FACS) in spleen, PLN and IIC of treated NOD mice; type: cell-based, mouse; details: islet infiltrating cells (FIG. 11)
Method: Cytokine production by CD4^+ T cells (left panels) and percentages of CD4^+CD25^+ T cells (right panels) were evaluated by CBA and FACS analysis respectively, in the spleen (A), pancreatic lymph nodes (PLN) (B), and islet infiltrating cells (IIC) (C) of untreated-diabetic NOD mice (gray bars), rapamycin-treated mice (white bars), or rapamycin+IL-10-treated mice (black bars). […] The percentages of CD4^+CD25^+ T cells were higher in the spleen, PLN, and IIC of both mice treated with rapamycin alone or rapamycin+IL-10 (black bars). Therefore, in rapamycin+IL-10 treated mice, Tr1 cells are present in the spleen and CD4^+CD25^+ Tr cells are present in the spleen, lymph nodes, and pancreas.
The mechanisms underlying long-term tolerance were analysed in tolerant mice of 50 weeks of age or older. […] However, the proportion of splenic CD4^+ T cells producing IL-4 was the same in both untreated and treated mice. […]
Flow cytometry. Cells were stained with the indicated Abs (all from BD), and were analyzed with a FACScan flow cytometer equipped with CellQuest software (BD).
Cytokine measurement. Cytokines present in the collected supernatants were quantified by sandwich ELISA or flow cytometry based assay (CBA), using standard commercially available kits (BD). The percentage of cells producing specific cytokines was measured by intracellular staining. […]

[2] = test system: allogeneic C57BL/6 β-islets transplanted in diabetic Balb/c mice; test: Allogeneic β-islet transplantation (C57BL/6 into Balb/c), graft survival monitored by glycemia; type: in vivo, mouse
Method: Balb/c mice that had been rendered diabetic by streptozotocin injection were transplanted under the kidney capsule with purified allogeneic C57BL/6 β-islets. Mice were not treated (control, n=13 mice), or treated with rapamycin+antiTac+IL-10 (IL-10 protocol, n=16 mice) or rapamycin+antiTac+FK506 (Edmonton protocol, n=4 mice) for 30 days. Graft survival was monitored by glycemia levels. A graft was considered rejected when glycemia was higher than 250 mg/dl.
Balb/c mice that had been rendered diabetic by streptozotocin injection were transplanted under the kidney capsule with purified allogeneic C57BL/6 β-islets. Mice were not treated (control, n=8 mice), or treated with rapamycin in combination with IL-10 (rapa+IL10, n=8 mice) or IL10 only (n=4 mice). Graft survival was monitored by glycemia levels.
Allogeneic β-islet transplantation. A model of fully mismatched murine islet allotransplantation (C57BL/6 into Balb/C) was used.
Balb/c mice that had been rendered diabetic by streptozotocin injection were transplanted under the kidney capsule with purified allogeneic C57BL/6 β-islets.
Treatment of transplanted mice. […] Diabetes incidence was monitored by blood glucose levels.

| Molecule | diabetes incidence (NOD mice; NOD mice treated from 11 to 31 weeks of age, vehicle 95% (FIG. 10A)) [%] | CD4+CD25+ T cells as share of CD4+ T cells isolated from IIC [1] [%] | effect on the development of diabetes (NOD mice; NOD mice treated from 11 to 31 weeks of age (FIG. 10A)) | long-term graft survival ([2]; Balb/c mice treated for 30 days, without antiTac (FIG. 2)) [%] | prevention of graft rejection ([2]; Balb/c mice, FIG. 2) |
| --- | --- | --- | --- | --- | --- |
| CO[C@H]1C[C@@H]2CC[C@@H](C)[C@@](O)(O2)C(=O)C(=O)N2CCCC[C@H]2C(=O)O[C@H]([C@H](C)C[C@@H]2CC[C@@H](O)[C@H](OC)C2)CC(=O)[C@H](C)/C=C(\C)[C@@H](O)[C@@H](OC)C(=O)[C@H](C)C[C@H](C)/C=C/C=C/C=C/1C [rapamycin] | 46 | ~100 |  |  |  |
| IL-10: Human IL-10 (BD Biosciences), cytokine, 0.05 mg/Kg IP twice a day (protein, UniProt P22301 19-178, looked up) Interleukin-10: SPGQGTQSENSCTHFPGNLPNMLRDLRDAFSRVKTFFQMKDQLDNLLLKESLLEDFKGYLGCQALSEMIQFYLEEVMPQAENQDPDIKAHVNSLGENLKTLRLRLRRCHRFLPCENKSKAVEQVKNAFNKLQEKGIYKAMSEFDIFINYIEAYMTMKIRN |  |  | no significant effect | 30 | not efficient in preventing graft rejection |

Source: US8329637B2, “Method for the treatment of automimmune diseases comprising administering rapamycin and IL-10” (priority 2002, dated 2012)
